Values belong to the molecule of their own block, whether it stands above or below them.
Columns and labels:
[1] = test system: MA3 (DNA, aptamer) AACCGCCCAAATCCCTAAGAGTCGGACTGCAACCTATGCTATCGTTGATGTCTGTCCAAGCAACACAGACACACTACACACGCACA; assay: fluorescence quenching of doxorubicin; conditions: aqueous solution, 1 h; Dox 3 nM as printed; intercalation; quenching complete at aptamer/Dox 0.1
[2] = molecular target: T1, MUC1 peptide1 (APDTRPAPG epitope) (UniProt P15941); assay: flow cytometry, bead binding; Hanks buffer (binding buffer), 37 C, 30 min, 200 ul; aptamer DNA heated 95 C 5 min then cooled to 0 C (stated for SELEX pool and Dox loading); pH not stated; conditions: tags: EDC-coupled to carboxylated magnetic beads; label: 5'-FITC
T1 chain: APDTRPAPG

[3] = molecular target: T2, MUC1 peptide2 (entire tandem repeat) (UniProt P15941); assay: as above; conditions: tags: EDC-coupled to magnetic beads; label: 5'-FITC
T2 chain: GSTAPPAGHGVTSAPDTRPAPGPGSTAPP

binding [1]: yes
Molecule: COc1cccc2c1C(=O)c1c(O)c3c(c(O)c1C2=O)C[C@@](O)(C(=O)CO)C[C@@H]3O[C@H]1C[C@H](N)[C@H](O)[C@H](C)O1

B1: MA3 (ssDNA)
DNA: AACCGCCCAAATCCCTAAGAGTCGGACTGCAACCTATGCTATCGTTGATGTCTGTCCAAGCAACACAGACACACTACACACGCACA
Kd [2]: 38.3 nM | binding result [3]: binds

— publication PMC3284512
